Results as given in the supplement of paper PMC9112550, “Optimization of the antimicrobial peptide Bac7 by deep mutational scanning” (BMC Biology, 2022).

Tested on: Escherichia coli TOP10
Test: shrunken log2 fold change of peptide-encoding DNA abundance (4.5 h post-induction vs induction); higher = less antimicrobial activity (less host growth inhibition)
Settings: time post-induction: 4.5 h; library: site-saturation at positions 5, 18, 19, 20
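Note: peptides expressed intracellularly from a pBAD plasmid library in pooled LB shake-flask culture, induced with 0.3% L-arabinose, DNA abundance read by NGS, three biological replicates, DESeq2 with apeglm shrinkage.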

| Sequence | shrunken log2 fold change |
| --- | --- |
| RRIRRRPPRLPRPRPRPVRKPRP | -0.0548 |
| RRIRHRPPRLPRPRPRPRQWPRP | 0.408 |
| RRIRMRPPRLPRPRPRPQCNPRP | 0.041 |
| RRIRWRPPRLPRPRPRPRADPRP | 0.667 |
| RRIRERPPRLPRPRPRPKVFPRP | 0.0354 |
| RRIRQRPPRLPRPRPRPKPYPRP | -0.074 |
| RRIRNRPPRLPRPRPRPLRHPRP | -0.0731 |
| RRIRHRPPRLPRPRPRPNLLPRP | -0.13 |
| RRIRCRPPRLPRPRPRPVECPRP | -0.142 |
| RRIRIRPPRLPRPRPRPFLDPRP | -0.888 |
| RRIRARPPRLPRPRPRPCNRPRP | 0.0805 |
| RRIRYRPPRLPRPRPRPETPPRP | 0.156 |
| RRIRDRPPRLPRPRPRPRPAPRP | 0.966 |
| RRIRCRPPRLPRPRPRPKQTPRP | -0.0521 |
| RRIRARPPRLPRPRPRPWWAPRP | 0.289 |
| RRIRERPPRLPRPRPRPCHCPRP | -0.344 |
| RRIRGRPPRLPRPRPRPMERPRP | 1.36 |
| RRIRDRPPRLPRPRPRPFTWPRP | -0.12 |
| RRIRYRPPRLPRPRPRPPLEPRP | 0.119 |
| RRIRVRPPRLPRPRPRPRGWPRP | 0.666 |
| RRIRTRPPRLPRPRPRPPETPRP | 0.161 |
| RRIRVRPPRLPRPRPRPINTPRP | -1.07 |
| RRIRPRPPRLPRPRPRPSAFPRP | 0.191 |
| RRIRCRPPRLPRPRPRPLPIPRP | -0.0776 |
| RRIRFRPPRLPRPRPRPPYKPRP | -0.279 |

| Sequence | shrunken log2 fold change |
| --- | --- |
| RRIRERPPRLPRPRPRPPNMPRP | -0.251 |
| RRIRRRPPRLPRPRPRPYCHPRP | -0.792 |
| RRIRQRPPRLPRPRPRPETSPRP | -0.192 |
| RRIRYRPPRLPRPRPRPTILPRP | -0.521 |
| RRIRERPPRLPRPRPRPRALPRP | 0.0317 |
| RRIRHRPPRLPRPRPRPKFEPRP | -0.125 |
| RRIRKRPPRLPRPRPRPAKWPRP | 0.26 |
| RRIRHRPPRLPRPRPRPYLHPRP | -0.175 |
| RRIRIRPPRLPRPRPRPEWCPRP | 0.0249 |
| RRIRERPPRLPRPRPRPPWAPRP | 0.176 |
| RRIRRRPPRLPRPRPRPPDQPRP | 0.764 |
| RRIRQRPPRLPRPRPRPAMSPRP | 0.322 |
| RRIRHRPPRLPRPRPRPARIPRP | 0.0499 |
| RRIRGRPPRLPRPRPRPKPIPRP | 0.177 |
| RRIRGRPPRLPRPRPRPGHGPRP | 0.323 |
| RRIRPRPPRLPRPRPRPINDPRP | -0.178 |
| RRIRSRPPRLPRPRPRPVSKPRP | 0.236 |
| RRIRKRPPRLPRPRPRPFYHPRP | 0.0754 |
| RRIRKRPPRLPRPRPRPWFWPRP | 0.442 |
| RRIRVRPPRLPRPRPRPFKYPRP | -0.0213 |
| RRIRKRPPRLPRPRPRPMQEPRP | 0.0391 |
| RRIRGRPPRLPRPRPRPCHPPRP | -0.119 |
| RRIRKRPPRLPRPRPRPQWVPRP | 0.0548 |
| RRIRPRPPRLPRPRPRPSLGPRP | 0.342 |
| RRIRPRPPRLPRPRPRPKKSPRP | 0.085 |

| Sequence | shrunken log2 fold change |
| --- | --- |
| RRIRIRPPRLPRPRPRPGNWPRP | -0.35 |
| RRIRMRPPRLPRPRPRPDIMPRP | 2.19 |
| RRIRFRPPRLPRPRPRPCKHPRP | -0.0872 |
| RRIRYRPPRLPRPRPRPDQIPRP | 0.0304 |
| RRIRDRPPRLPRPRPRPSPCPRP | -0.0819 |
| RRIRGRPPRLPRPRPRPCYYPRP | -0.00676 |
| RRIRWRPPRLPRPRPRPIHIPRP | -0.694 |
| RRIRPRPPRLPRPRPRPWQYPRP | 0.0173 |
| RRIRYRPPRLPRPRPRPGNMPRP | -0.55 |
| RRIRQRPPRLPRPRPRPLQVPRP | -0.0738 |
| RRIRIRPPRLPRPRPRPVYDPRP | -0.0144 |
| RRIRDRPPRLPRPRPRPDYLPRP | 0.0544 |
| RRIRPRPPRLPRPRPRPHCNPRP | -0.52 |
| RRIRFRPPRLPRPRPRPFCHPRP | -0.433 |
| RRIRIRPPRLPRPRPRPKLGPRP | -0.217 |
| RRIRPRPPRLPRPRPRPKADPRP | 0.0968 |
| RRIRKRPPRLPRPRPRPNTQPRP | -0.0781 |
| RRIRGRPPRLPRPRPRPMYLPRP | 0.0702 |
| RRIRRRPPRLPRPRPRPLWDPRP | 0.56 |
| RRIRWRPPRLPRPRPRPAPCPRP | 0.322 |
| RRIRLRPPRLPRPRPRPLIFPRP | -0.656 |
| RRIRDRPPRLPRPRPRPNWPPRP | 0.0913 |
| RRIRLRPPRLPRPRPRPPDPPRP | 0.584 |
| RRIRNRPPRLPRPRPRPWTSPRP | 0.0238 |
| RRIRFRPPRLPRPRPRPSFKPRP | -0.683 |

| Sequence | shrunken log2 fold change |
| --- | --- |
| RRIRQRPPRLPRPRPRPFHHPRP | -0.0143 |
| RRIRNRPPRLPRPRPRPLEFPRP | -0.109 |
| RRIRCRPPRLPRPRPRPHAYPRP | -0.759 |
| RRIRDRPPRLPRPRPRPKQSPRP | 0.00791 |
| RRIRSRPPRLPRPRPRPIRSPRP | 0.0127 |
| RRIRIRPPRLPRPRPRPEKYPRP | -0.423 |
| RRIRMRPPRLPRPRPRPNEQPRP | 0.37 |
| RRIRARPPRLPRPRPRPTCQPRP | 0.431 |
| RRIRVRPPRLPRPRPRPMFEPRP | 0.0774 |
| RRIRHRPPRLPRPRPRPHEIPRP | -0.0135 |
| RRIRQRPPRLPRPRPRPKPGPRP | 0.285 |
| RRIRGRPPRLPRPRPRPKLTPRP | 0.808 |
| RRIRPRPPRLPRPRPRPAMQPRP | 0.11 |
| RRIRMRPPRLPRPRPRPFWQPRP | 0.341 |
| RRIRGRPPRLPRPRPRPPYFPRP | 0.0555 |
| RRIRRRPPRLPRPRPRPRFHPRP | 0.0555 |
| RRIRWRPPRLPRPRPRPHWRPRP | 0.329 |
| RRIRKRPPRLPRPRPRPTWVPRP | -0.105 |
| RRIRDRPPRLPRPRPRPWYDPRP | -0.6 |
| RRIRLRPPRLPRPRPRPDKHPRP | -0.971 |
| RRIRVRPPRLPRPRPRPRLAPRP | 0.684 |
| RRIRQRPPRLPRPRPRPCHAPRP | -0.126 |
| RRIRTRPPRLPRPRPRPWYPPRP | -0.255 |
| RRIRDRPPRLPRPRPRPAPDPRP | 0.533 |
| RRIRDRPPRLPRPRPRPRGYPRP | 0.03 |

| Sequence | shrunken log2 fold change |
| --- | --- |
| RRIRVRPPRLPRPRPRPKLYPRP | -0.0874 |
| RRIRPRPPRLPRPRPRPPPAPRP | 2.01 |
| RRIRSRPPRLPRPRPRPWGQPRP | 0.0926 |
| RRIRSRPPRLPRPRPRPLTFPRP | 0.182 |
| RRIRKRPPRLPRPRPRPGVQPRP | 0.228 |
| RRIRERPPRLPRPRPRPMNDPRP | -0.0199 |
| RRIRARPPRLPRPRPRPLDHPRP | 0.267 |
| RRIRFRPPRLPRPRPRPMKSPRP | -0.198 |
| RRIRQRPPRLPRPRPRPPRRPRP | 0.852 |
| RRIRLRPPRLPRPRPRPYMQPRP | -0.297 |
| RRIRWRPPRLPRPRPRPSEVPRP | -0.0251 |
| RRIRCRPPRLPRPRPRPRDPPRP | 0.864 |
| RRIRERPPRLPRPRPRPFMEPRP | -0.00484 |
| RRIRLRPPRLPRPRPRPSQVPRP | -0.573 |
| RRIRHRPPRLPRPRPRPPSEPRP | -0.0921 |
| RRIRYRPPRLPRPRPRPGWHPRP | 0.00731 |
| RRIRWRPPRLPRPRPRPQCKPRP | 0.132 |
| RRIRLRPPRLPRPRPRPLGKPRP | -0.0194 |
| RRIRGRPPRLPRPRPRPAPKPRP | 1.18 |
| RRIRTRPPRLPRPRPRPWLTPRP | -0.0866 |
| RRIRTRPPRLPRPRPRPIFVPRP | 0.144 |
| RRIRPRPPRLPRPRPRPTDNPRP | -0.134 |
| RRIRQRPPRLPRPRPRPTDIPRP | -0.0659 |
| RRIRWRPPRLPRPRPRPDQAPRP | 0.11 |
| RRIRMRPPRLPRPRPRPKQYPRP | 0.146 |
